In paper PMC5758712 (2018) one finds Kd data, which are given here for two molecules.

For one experiment, the target named is UBE2D1 (Homo sapiens (Human), UniProt P51668). The experiment in a line: ITC; UbcH7 cells RING1 fragment, UbcH5A cells whole RBR.
A further experiment deals with UBE2L3 (Homo sapiens (Human), UniProt P68036). The experiment is described as above.

A value given as a limit tells only on which side of the number the result lay.

Chain of UBE2D1 (P51668 whole entry, the tested form may be a part): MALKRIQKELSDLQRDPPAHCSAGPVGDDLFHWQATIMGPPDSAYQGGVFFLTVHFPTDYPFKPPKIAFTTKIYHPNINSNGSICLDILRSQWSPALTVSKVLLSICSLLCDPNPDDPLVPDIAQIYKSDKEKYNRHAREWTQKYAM
Chain of UBE2L3 (P68036 whole entry): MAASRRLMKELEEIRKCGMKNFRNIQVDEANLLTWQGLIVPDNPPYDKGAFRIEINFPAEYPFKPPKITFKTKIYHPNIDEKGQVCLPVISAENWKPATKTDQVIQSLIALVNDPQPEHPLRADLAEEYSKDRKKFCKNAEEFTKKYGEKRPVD

B1: TRIAD3A (protein)
chain: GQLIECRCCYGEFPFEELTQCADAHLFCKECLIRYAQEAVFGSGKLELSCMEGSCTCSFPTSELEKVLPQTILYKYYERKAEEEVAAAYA
As to B1, the figures for the Kd with UBE2D1 and in the experiment with UBE2L3 were over 50 µM and 3.2 µM, respectively.

B2: HHARI (protein)
chain: TRSSAQDMPCQICYLNYPNSYFTGLECGHKFCMQCWSEYLTTKIMEEGMGQTISCPAHGCDILVDDNTVMRLITDSKVKLKYQHLITNSFVECN
In the case of B2, the results for the Kd with UBE2D1 and with UBE2L3 were over 50 µM and 0.21 µM, respectively.
